In article PMC7587188:
pKd: −log10 of the molar value.

Biological target: B-Glucosidase
Assay: ITC; 1 mM BSA in the syringe, 10 uL injections into 66 uM B-GLU in the cell; 25 °C; PBS pH 6; VP-ITC; fitted with AFFINImeter, independent sites approach (GoF = 50.81%)

Ka: 530000 M⁻¹
pKd: 5.72
dH: -0.26 kcal/mol
stoichiometry N: 1.23
Substance: Bovine Serum Albumin (from UniProt P02769 25-607) (natural protein)
